Data published in PMC314469, “Protein Interaction Networks by Proteome Peptide Scanning” (PLoS Biology, 2004).

Columns and labels:
[1] = target: T1, amphyphisin SH3 (AMPH_HUMAN), P49418; assay: SPOT array
T1 chain: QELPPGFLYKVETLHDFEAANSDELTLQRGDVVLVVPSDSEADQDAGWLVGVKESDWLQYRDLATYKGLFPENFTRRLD

[2] = target: endophilin SH3 (SH3G2_HUMAN), Q99962; assay: SPOT array

SESRIRRPMNAFMV [Q9BT81 41-54]
normalised SPOT signal, Boehringer light units (BLU); mean over the file's lines of this peptide [1]: 0
normalised SPOT signal, Boehringer light units (BLU); mean over the file's lines of this peptide [2]: 32.9

SGGRPLRPPHPVAK [O76081 141-155]
normalised SPOT signal, Boehringer light units (BLU); mean over the file's lines of this peptide [1]: 718
normalised SPOT signal, Boehringer light units (BLU); mean over the file's lines of this peptide [2]: 6230

SGERLPRPDKGKMR [Q08043 87-100]
normalised SPOT signal, Boehringer light units (BLU); mean over the file's lines of this peptide [1]: 91.2
normalised SPOT signal, Boehringer light units (BLU); mean over the file's lines of this peptide [2]: 47.7

SFLSLRRPWNWIAH [O15229 449-462]
normalised SPOT signal, Boehringer light units (BLU); mean over the file's lines of this peptide [1]: 57.7
normalised SPOT signal, Boehringer light units (BLU); mean over the file's lines of this peptide [2]: 500

SGGKIRRPANVPID [Q16322 147-160]
normalised SPOT signal, Boehringer light units (BLU); mean over the file's lines of this peptide [1]: 0
normalised SPOT signal, Boehringer light units (BLU); mean over the file's lines of this peptide [2]: 94.6

SGKGLRRPHSTVEE [Q9P2L5 16-29]
normalised SPOT signal, Boehringer light units (BLU); mean over the file's lines of this peptide [1]: 44.8
normalised SPOT signal, Boehringer light units (BLU); mean over the file's lines of this peptide [2]: 17.2

SGAPPTKPPTTPVG [P54259 267-281]
normalised SPOT signal, Boehringer light units (BLU); mean over the file's lines of this peptide [1]: 41.3
normalised SPOT signal, Boehringer light units (BLU); mean over the file's lines of this peptide [2]: 65.4

SGLAPKRPGPAGEL [Q16849 127-140]
normalised SPOT signal, Boehringer light units (BLU); mean over the file's lines of this peptide [1]: 22.9
normalised SPOT signal, Boehringer light units (BLU); mean over the file's lines of this peptide [2]: 11.3

SGTPIRRPMGQMKP [P16930 169-182]
normalised SPOT signal, Boehringer light units (BLU); mean over the file's lines of this peptide [1]: 3.3
normalised SPOT signal, Boehringer light units (BLU); mean over the file's lines of this peptide [2]: 148

SFSHLKRPQQGAGN [O43190 163-176]
normalised SPOT signal, Boehringer light units (BLU); mean over the file's lines of this peptide [1]: 26.3
normalised SPOT signal, Boehringer light units (BLU); mean over the file's lines of this peptide [2]: 32.4

SGPDLRRPPTPAPW [Q96IB8 451-464]
normalised SPOT signal, Boehringer light units (BLU); mean over the file's lines of this peptide [1]: 39.4
normalised SPOT signal, Boehringer light units (BLU); mean over the file's lines of this peptide [2]: 39.1

SGGRLRRPAHVPLD [Q9BYS4 74-87]
normalised SPOT signal, Boehringer light units (BLU); mean over the file's lines of this peptide [1]: 20.8
normalised SPOT signal, Boehringer light units (BLU); mean over the file's lines of this peptide [2]: 24.7

SEDPLKRPVVYVKG [Q9ULT6 127-140]
normalised SPOT signal, Boehringer light units (BLU); mean over the file's lines of this peptide [1]: 21.3
normalised SPOT signal, Boehringer light units (BLU); mean over the file's lines of this peptide [2]: 58.8

AWVSPRRPDEEQRP [Q96MG2 305-318]
normalised SPOT signal, Boehringer light units (BLU); mean over the file's lines of this peptide [1]: 57.9
normalised SPOT signal, Boehringer light units (BLU); mean over the file's lines of this peptide [2]: 398

SFLTLTRPDRALVR [Q9H6A9 133-146]
normalised SPOT signal, Boehringer light units (BLU); mean over the file's lines of this peptide [1]: 894
normalised SPOT signal, Boehringer light units (BLU); mean over the file's lines of this peptide [2]: 211

SGVLLVRPSRLSSS [P11362 439-452]
normalised SPOT signal, Boehringer light units (BLU); mean over the file's lines of this peptide [1]: 7990
normalised SPOT signal, Boehringer light units (BLU); mean over the file's lines of this peptide [2]: 210

AAVAPSRPGREPQA [Q9ULI4 780-793]
normalised SPOT signal, Boehringer light units (BLU); mean over the file's lines of this peptide [1]: 2520
normalised SPOT signal, Boehringer light units (BLU); mean over the file's lines of this peptide [2]: 418

SGNSLKRPDTTESL [Q96SU4 326-339]
normalised SPOT signal, Boehringer light units (BLU); mean over the file's lines of this peptide [1]: 24.4
normalised SPOT signal, Boehringer light units (BLU); mean over the file's lines of this peptide [2]: 18.9

SFSELVRPFKSNKS [O00529 218-231]
normalised SPOT signal, Boehringer light units (BLU); mean over the file's lines of this peptide [1]: 32.8
normalised SPOT signal, Boehringer light units (BLU); mean over the file's lines of this peptide [2]: 106

SGGRLRRPVNVSLD [P22460 181-194]
normalised SPOT signal, Boehringer light units (BLU); mean over the file's lines of this peptide [1]: 56.9
normalised SPOT signal, Boehringer light units (BLU); mean over the file's lines of this peptide [2]: 54.6

SFLRLRRPWNWIAH [Q9H1Y5 130-143]
normalised SPOT signal, Boehringer light units (BLU); mean over the file's lines of this peptide [1]: 120
normalised SPOT signal, Boehringer light units (BLU); mean over the file's lines of this peptide [2]: 351

SGGRLRRPVNVPLD [Q09470 98-111]
normalised SPOT signal, Boehringer light units (BLU); mean over the file's lines of this peptide [1]: 33.6
normalised SPOT signal, Boehringer light units (BLU); mean over the file's lines of this peptide [2]: 44

SGMAFPRPKRPAPA [Q9BQ84 245-258]
normalised SPOT signal, Boehringer light units (BLU); mean over the file's lines of this peptide [1]: 1310
normalised SPOT signal, Boehringer light units (BLU); mean over the file's lines of this peptide [2]: 629

SGPGPARPARARPR [P53539 130-143]
normalised SPOT signal, Boehringer light units (BLU); mean over the file's lines of this peptide [1]: 14900
normalised SPOT signal, Boehringer light units (BLU); mean over the file's lines of this peptide [2]: 17200

SGTALLRPLRPKPP [Q92766 106-119]
normalised SPOT signal, Boehringer light units (BLU); mean over the file's lines of this peptide [1]: 147
normalised SPOT signal, Boehringer light units (BLU); mean over the file's lines of this peptide [2]: 153

SGSRPRKPPPRKHT [Q9P189 81-95]
normalised SPOT signal, Boehringer light units (BLU); mean over the file's lines of this peptide [1]: 3680
normalised SPOT signal, Boehringer light units (BLU); mean over the file's lines of this peptide [2]: 3720

SAGLPGKPPAIQAS [O95428 427-441]
normalised SPOT signal, Boehringer light units (BLU); mean over the file's lines of this peptide [1]: 42.4
normalised SPOT signal, Boehringer light units (BLU); mean over the file's lines of this peptide [2]: 50.3

SEPHIKRPMNAFMV [Q9BXQ5 597-610]
normalised SPOT signal, Boehringer light units (BLU); mean over the file's lines of this peptide [1]: 32
normalised SPOT signal, Boehringer light units (BLU); mean over the file's lines of this peptide [2]: 63.7

SGGRIRRPVNVPID [P22001 113-126]
normalised SPOT signal, Boehringer light units (BLU); mean over the file's lines of this peptide [1]: 29
normalised SPOT signal, Boehringer light units (BLU); mean over the file's lines of this peptide [2]: 104

SEGSLTRPKKAIPP [O14810 90-103]
normalised SPOT signal, Boehringer light units (BLU); mean over the file's lines of this peptide [1]: 0
normalised SPOT signal, Boehringer light units (BLU); mean over the file's lines of this peptide [2]: 68.4

SFQSPTRPPLASPT [Q9UGJ0 207-221]
normalised SPOT signal, Boehringer light units (BLU); mean over the file's lines of this peptide [1]: 27.7
normalised SPOT signal, Boehringer light units (BLU); mean over the file's lines of this peptide [2]: 161

SGDQLKRPFGAFRS [Q9Y6H5 853-866]
normalised SPOT signal, Boehringer light units (BLU); mean over the file's lines of this peptide [1]: 20.6
normalised SPOT signal, Boehringer light units (BLU); mean over the file's lines of this peptide [2]: 75.5

SFTALRRPSLRREA [O76050 230-243]
normalised SPOT signal, Boehringer light units (BLU); mean over the file's lines of this peptide [1]: 65.1
normalised SPOT signal, Boehringer light units (BLU); mean over the file's lines of this peptide [2]: 27.6

SGSKLKRPTPTFHS [Q9UPN3 5307-5320]
normalised SPOT signal, Boehringer light units (BLU); mean over the file's lines of this peptide [1]: 41.6
normalised SPOT signal, Boehringer light units (BLU); mean over the file's lines of this peptide [2]: 40.3

SFAYPNRPDRPVLK [Q03519 474-487]
normalised SPOT signal, Boehringer light units (BLU); mean over the file's lines of this peptide [1]: 1280
normalised SPOT signal, Boehringer light units (BLU); mean over the file's lines of this peptide [2]: 245

SGEQLPRPTRGRMR [Q9H254 103-116]
normalised SPOT signal, Boehringer light units (BLU); mean over the file's lines of this peptide [1]: 873
normalised SPOT signal, Boehringer light units (BLU); mean over the file's lines of this peptide [2]: 210

SGGIPKRPSSPVIS [Q96T17 281-294]
normalised SPOT signal, Boehringer light units (BLU); mean over the file's lines of this peptide [1]: 46.1
normalised SPOT signal, Boehringer light units (BLU); mean over the file's lines of this peptide [2]: 1080

SGAEIKRPGASVKV [O95978 26-39]
normalised SPOT signal, Boehringer light units (BLU); mean over the file's lines of this peptide [1]: 34.4
normalised SPOT signal, Boehringer light units (BLU); mean over the file's lines of this peptide [2]: 32.7

SGGRPIKPPKKDLE [Q15059 280-294]
normalised SPOT signal, Boehringer light units (BLU); mean over the file's lines of this peptide [1]: 48.5
normalised SPOT signal, Boehringer light units (BLU); mean over the file's lines of this peptide [2]: 66

SGLRLRRPRVSSTE [Q9H3P9 250-263]
normalised SPOT signal, Boehringer light units (BLU); mean over the file's lines of this peptide [1]: 67.4
normalised SPOT signal, Boehringer light units (BLU); mean over the file's lines of this peptide [2]: 44.7

SAGPPSRPQRPFSA [O43257 105-118]
normalised SPOT signal, Boehringer light units (BLU); mean over the file's lines of this peptide [1]: 4230
normalised SPOT signal, Boehringer light units (BLU); mean over the file's lines of this peptide [2]: 2420

SGGRLKRPVNVPFD [P22459 237-250]
normalised SPOT signal, Boehringer light units (BLU); mean over the file's lines of this peptide [1]: 11.4
normalised SPOT signal, Boehringer light units (BLU); mean over the file's lines of this peptide [2]: 37.8
